Data: article PMC5594927

Columns and labels:
[1] = target: T1, AtGPA1, Arabidopsis Gα subunit, His-tagged (Arabidopsis thaliana) (UniProt P18064)
T1 sequence: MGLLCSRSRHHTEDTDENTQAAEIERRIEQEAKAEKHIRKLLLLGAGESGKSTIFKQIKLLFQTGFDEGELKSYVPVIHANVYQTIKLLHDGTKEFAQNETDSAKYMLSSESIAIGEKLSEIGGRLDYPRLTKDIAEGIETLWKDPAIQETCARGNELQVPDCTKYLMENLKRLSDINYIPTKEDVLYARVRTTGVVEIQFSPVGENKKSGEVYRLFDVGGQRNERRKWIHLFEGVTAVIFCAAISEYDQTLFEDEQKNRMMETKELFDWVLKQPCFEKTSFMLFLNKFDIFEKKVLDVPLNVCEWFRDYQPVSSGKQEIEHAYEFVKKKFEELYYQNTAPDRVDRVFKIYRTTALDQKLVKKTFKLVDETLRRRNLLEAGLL

[2] = target: T1, AtGPA1, Arabidopsis Gα subunit, His-tagged (Arabidopsis thaliana); remark: listed apart in the source

B1: C-terminal domain of AtRGS1 (residues 284–459), His-tagged (domain or fragment)
chain: KEEFRPVDPNEPLDKLLLNKRFRHSFMEFADSCYAGETLHFFEEVYEHGKIPEDDSIRRIYMARHIMEKFIVAGAEMELNLSHKTRQEILTTQDLTHTDLFKNALNEVMQLIKMNLVRDYWSSIYFIKFKEEESCHEAMHKEGYSFSSPRLSSVQGSDDPFYQEHMSKSSRCSSPG
GAP activity as ΔK per molecule, single turnover GTPase assay (min^−1 pmol^−1) [1]: 0.0378
rate constant of single turnover GTP hydrolysis by AtGPA1 with 30 nM RGS1box [2]: 0.18 min⁻¹
